B1: Siplizumab (humanized anti-CD2 IgG1κ) (antibody, V domains shown)
VH: QVQLVQSGAEVQRPGASVKVSCKASGYIFTEYYMYWVRQAPGQGLELVGRIDPEDGSIDYVEKFKKKVTLTADTSSSTAYMELSSLTSDDTAVYYCARGKFNYRFAYWGQGTLVTVSS
VL: DVVMTQSPPSLLVTLGQPASISCRSSQSLLHSSGNTYLNWLLQRPGQSPQPLIYLVSKLESGVPDRFSGSGSGTDFTLKISGVEAEDVGVYYCMQFTHYPYTFGQGTKLEIK
notes: also called MEDI-507; anti-CD2 Ab1
B2: CD2-binding molecule 1 (a deglycosylated CD2-binding molecule) (antibody, V domains shown)
VH: QVQLVQSGAEVQRPGASVKVSCKASGYIFTEYYMYWVRQAPGQGLELVGRIDPEDGSIDYVEKFKKKVTLTADTSSSTAYMELSSLTSDDTAVYYCARGKFNYRFAYWGQGTLVTVSS
VL: DVVMTQSPPSLLVTLGQPASISCRSSQSLLHSSGNTYLNWLLQRPGQSPQPLIYLVSKLESGVPDRFSGSGSGTDFTLKISGVEAEDVGVYYCMQFTHYPYTFGQGTKLEIK
modifications: Fc N-glycan removed with EndoS2 (GlycINATOR)
notes: produced with GlycINATOR (EndoS2)
B3: CD2-binding molecule 4 (FcS anti-CD2 IgG4) (antibody, V domains shown)
VH: QVQLVQSGAEVQRPGASVKVSCKASGYIFTEYYMYWVRQAPGQGLELVGRIDPEDGSIDYVEKFKKKVTLTADTSSSTAYMELSSLTSDDTAVYYCARGKFNYRFAYWGQGTLVTVSS
VL: DVVMTQSPPSLLVTLGQPASISCRSSQSLLHSSGNTYLNWLLQRPGQSPQPLIYLVSKLESGVPDRFSGSGSGTDFTLKISGVEAEDVGVYYCMQFTHYPYTFGQGTKLEIK
notes: Standard IgG4 framework with S228P, L235E, P329G; made in CHO-K1 cells
B4: CD2-binding molecule 3 (FcS anti-CD2 IgG2) (antibody, V domains shown)
VH: QVQLVQSGAEVQRPGASVKVSCKASGYIFTEYYMYWVRQAPGQGLELVGRIDPEDGSIDYVEKFKKKVTLTADTSSSTAYMELSSLTSDDTAVYYCARGKFNYRFAYWGQGTLVTVSS
VL: DVVMTQSPPSLLVTLGQPASISCRSSQSLLHSSGNTYLNWLLQRPGQSPQPLIYLVSKLESGVPDRFSGSGSGTDFTLKISGVEAEDVGVYYCMQFTHYPYTFGQGTKLEIK
notes: Standard IgG2 framework with V234A, G237A, P238S, H268A, V309L, A330S, P331S; made in CHO-K1 cells
B5: CD2-binding molecule 2 (Fc-silent (FcS) anti-CD2 IgG1) (antibody, V domains shown)
VH: QVQLVQSGAEVQRPGASVKVSCKASGYIFTEYYMYWVRQAPGQGLELVGRIDPEDGSIDYVEKFKKKVTLTADTSSSTAYMELSSLTSDDTAVYYCARGKFNYRFAYWGQGTLVTVSS
VL: DVVMTQSPPSLLVTLGQPASISCRSSQSLLHSSGNTYLNWLLQRPGQSPQPLIYLVSKLESGVPDRFSGSGSGTDFTLKISGVEAEDVGVYYCMQFTHYPYTFGQGTKLEIK
notes: IgG1 with LALA-PG mutations at equivalent sites in siplizumab; made in CHO-K1 cells; also called Fc-silent Siplizumab

This assay addresses T1, Recombinant truncated human CD2 (human, UniProt P06729 25-209, limits assumed).
T1 construct: Bought; also called LFA2
T1 sequence (looked up): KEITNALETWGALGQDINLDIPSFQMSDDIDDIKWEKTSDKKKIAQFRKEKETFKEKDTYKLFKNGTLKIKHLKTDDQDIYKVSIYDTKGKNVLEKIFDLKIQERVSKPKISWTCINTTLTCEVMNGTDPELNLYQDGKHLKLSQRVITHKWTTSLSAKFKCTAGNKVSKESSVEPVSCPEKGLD
Put plainly: SPR (Biacore T200), IgG amine-coupled to CM5 chip, CD2 injected up to 5 nM, two-state model, 25 °C. As to the method: All interaction experiments were performed at 25° C. Recombinant truncated human CD2 (Sino Biological, Beijing, China) was diluted in two-fold dilution series with the highest concentration being 5 nM and injected for 180 seconds over immobilized IgG. After 15 minutes of dissociation, the sensor chip was regenerated by 30 seconds injection of 10 mM glycine pH 1.7. Sensorgrams from reference surfaces and blank injections were subtracted from the raw data prior to data analysis. A two-state (induced fit) interaction model was fitted to the data using T200 evaluation software v3.0 (Cytiva Life Sciences/Biacore, Uppsala, Sweden) to determine kinetic rate constants and affinities.
Turning to B1, the Kd is 1.2 nM.

Consider B2, for which the Kd is 1.2 nM.

B3: the Kd was 1.4 nM.

B4: the Kd came out at 0.9 nM.

On to B5, for which the Kd is 1.5 nM.

The record behind these values is US20240270845A1 (ZELARION MALTA, published 2024).
